Source: patent US20160039904A1 (UNITED STATES OF AMERICA AS REPRESENTED BY THE SECRETARY …, published 2016)

How the values were obtained:
[1] = target: HIV-1 gp140Con-s (HIV-1)
[2] = target: HIV-1 gp140MS (HIV-1)
[3] = target: HIV-1 gp140CH12.0544.2 (HIV-1)

B1: mD1.22 (receptor)
chain: not shown
Work on B1 yielded a Kd [1] of 4400 pM, a Kd [2] of 190 pM and a Kd [3] of 170 pM.
